Source: paper PMC5836121 (2017)

Legend:
KRas(WT) = KRas(WT) (human, UniProt P01116 1-187, 15N-labelled in NMR; biotin on the yBBr tag (by Sfp) in SPR); assay: SPR; GppNHp
225-3 miniprotein = 225-3 miniprotein (fluorescein (N-(5-fluoresceinyl)maleimide) in fluorescence polarisation; biotin-PEG2-maleimide where immobilised in SPR; unlabelled otherwise); assay: FP; GppNHp

Kd (KRas(WT))	Kd (225-3 miniprotein)	Binder
0.09 nM		225-15a/b heterodimeric miniprotein (designed binder, oxidized dimer (disulfide with the other chain) | oxidized dimer (disulfide with the other chain)) chain 1: SGPRRPRCPGDQASLEELHEYWARLWNYLYRVAH chain 2: GGGPRRPRCPGDNASIKQLHAYWQRLYAYLAAVA
	> 10 µM	Rab25 (natural protein, biotinylated in SPR; unlabelled in fluorescence polarisation) MGNGTEEDYNFVFKVVLIGESGVGKTNLLSRFTRNEFSHDSRTTIGVEFSTRTVMLGTAAVKAQIWDTAGLERYRAITSAYYRGAVGALLVFDLTKHQTYAVVERWLKELYDHAEATIVVMLVGNKSDLSQAREVPTEEARMFAENNGLLFLETSALDSTNVELAFETVLKEIFAKVSKQRQNSIRTNAITLGSAQAGQEPGPGEKRACCISL
	> 10 µM	RalA (natural protein, biotinylated in SPR; unlabelled in fluorescence polarisation) MAANKPKGQNSLALHKVIMVGSGGVGKSALTLQFMYDEFVEDYEPTKADSYRKKVVLDGEEVQIDILDTAGQEDYAAIRDNYFRSGEGFLCVFSITEMESFAATADFREQILRVKEDENVPFLLVGNKSDLEDKRQVSVEEAKNRAEQWNVNYVETSAKTRANVDKVFFDLMREIRARKMEDSKEKNGKKKRKSLAKRIRERCCIL
